# Results taken from the Immune Epitope Database (IEDB).
# pIC50, pKd: −log10 of the molar value.
# Experiments:
# [1] = target: HLA-B*54:01; test: IEDB peptide-MHC binding, purified MHC/competitive/radioactivity; filed as Kd, often an IC50 or EC50 that approximates it; ≥ and ≤ were set here for values at or beyond the usual limits of such assays
# [2] = target: HLA-B*53:01; test: as above
# [3] = target: HLA-B*07:02; test: as above
# [4] = target: HLA-B*51:01; test: as above
# [5] = target: HLA-B*35:01; test: as above
# [6] = target: HLA-A*02:01; test: IEDB peptide-MHC binding, purified MHC/competitive/fluorescence; ≥ and ≤ were set here for values at or beyond the usual limits of such assays
# [7] = target: HLA-B*15:01; test: as above
# [8] = target: HLA-A*24:02; test: as above
# [9] = target: HLA-B*58:01; test: IEDB peptide-MHC binding, purified MHC/direct/fluorescence; filed as Kd, often an IC50 or EC50 that approximates it; ≥ and ≤ were set here for values at or beyond the usual limits of such assays; details: source organism: Francisella tularensis subsp. holarctica LVS
# [10] = target: HLA-B*15:17; test: as above; details: source organism: Francisella tularensis subsp. holarctica LVS
# [11] = target: HLA-B*57:01; test: as above; details: source organism: Francisella tularensis subsp. holarctica LVS
# [12] = target: HLA-B*35:01; test: IEDB peptide-MHC binding, purified MHC/competitive/fluorescence; filed as Kd, often an IC50 or EC50 that approximates it; ≥ and ≤ were set here for values at or beyond the usual limits of such assays
# [13] = target: HLA-B*15:01; test: IEDB peptide-MHC binding, purified MHC/direct/fluorescence; filed as Kd, often an IC50 or EC50 that approximates it; ≥ and ≤ were set here for values at or beyond the usual limits of such assays; details: source organism: Mycobacterium tuberculosis C
# [14] = target: HLA-C*05:01; test: as above
# [15] = target: HLA-A*02:11; test: as above; details: source organism: Dengue virus 2 Thailand/16681/84
# [16] = target: HLA-A*02:12; test: as above; details: source organism: Dengue virus 2 Thailand/16681/84
# [17] = target: HLA-A*03:01; test: IEDB peptide-MHC binding, purified MHC/competitive/fluorescence; filed as Kd, often an IC50 or EC50 that approximates it; ≥ and ≤ were set here for values at or beyond the usual limits of such assays
# [18] = target: HLA-A*03:01; test: IEDB peptide-MHC binding, purified MHC/competitive/fluorescence; ≥ and ≤ were set here for values at or beyond the usual limits of such assays
# [19] = target: HLA-A*11:01; test: as above
# [20] = target: HLA-A*11:01; test: IEDB peptide-MHC binding, purified MHC/competitive/radioactivity; filed as Kd, often an IC50 or EC50 that approximates it; ≥ and ≤ were set here for values at or beyond the usual limits of such assays; details: source organism: Vaccinia virus WR
# [21] = target: HLA-A*33:01; test: as above; details: source organism: Vaccinia virus WR
# [22] = target: HLA-A*68:01; test: as above; details: source organism: Vaccinia virus WR
# [23] = target: HLA-A*31:01; test: as above; details: source organism: Vaccinia virus WR
# [24] = target: HLA-A*01:01; test: IEDB peptide-MHC binding, purified MHC/competitive/fluorescence; filed as Kd, often an IC50 or EC50 that approximates it; ≥ and ≤ were set here for values at or beyond the usual limits of such assays
# [25] = target: HLA-B*15:42; test: as above
# [26] = target: HLA-B*83:01; test: as above
# [27] = target: HLA-B*45:06; test: as above
# [28] = target: HLA-A*23:01; test: IEDB peptide-MHC binding, purified MHC/direct/fluorescence; filed as Kd, often an IC50 or EC50 that approximates it; ≥ and ≤ were set here for values at or beyond the usual limits of such assays
# [29] = target: HLA-A*24:03; test: as above; details: source organism: Vibrio cholerae
# [30] = target: HLA-B*18:01; test: as above; details: source organism: Yellow fever virus 17D
# [31] = target: HLA-B*07:02; test: as above; details: source organism: Mycobacterium tuberculosis C
# [32] = target: HLA-B*51:01; test: IEDB peptide-MHC binding, purified MHC/competitive/fluorescence; filed as Kd, often an IC50 or EC50 that approximates it; ≥ and ≤ were set here for values at or beyond the usual limits of such assays; details: source organism: Mycobacterium tuberculosis H37Ra
# [33] = source organism: Mammarenavirus choriomeningitidis
# [34] = source organism: Sudan ebolavirus
# [35] = source organism: Vaccinia virus Copenhagen
# [36] = source organism: Mycobacterium tuberculosis H37Ra
# [37] = source organism: Zaire ebolavirus
# [38] = source organism: Vaccinia virus WR
# [39] = source organism: SARS coronavirus Tor2
# [40] = source organism: Lymphocytic choriomeningitis virus (strain Armstrong)
# [41] = source organism: Vaccinia virus
# [42] = source organism: Vibrio cholerae RC385
# [43] = source organism: Yersinia pestis Nepal516
# [44] = source organism: Triticum aestivum
# [45] = source organism: Yellow fever virus
sequence,measurement,setting,value
MPSEDGAEDL,pKd,[1]; [33],≤ 4.16
same,pKd,[2]; [33],6.04
same,pKd,[3]; [33],5.73
same,pKd,[4]; [33],≤ 4.16
same,pKd,[5]; [33],6.83
QLRGEELSF,pIC50,[6]; [34],≤ 4.06
same,pIC50,[7]; [34],4.78
IMLEGETKL,pIC50,[7]; [35],4.37
same,pIC50,[8]; [35],4.33
YGIAAHWSY,pKd,[9],7.32
same,pKd,[10],8.49
same,pKd,[11],6.59
same,pKd,[12]; source organism: Francisella tularensis subsp. tularensis FSC198,≥ 10.00
VLSDINAVF,pKd,[13],6.17
same,pKd,[14]; [36],8.05
SMVNGVVRL,pKd,[15],≥ 9.00
same,pKd,[16],7.89
KVHAVLTEH,pKd,[17]; source organism: Brucella abortus 2308,7.03
PKETFLQSP,pIC50,[18]; [34],≤ 3.76
KSDDVEGRF,pKd,[14]; source organism: Campylobacter upsaliensis RM3195,≥ 9.00
SFASLFLPK,pIC50,[19]; [37],7.09
same,pIC50,[8]; [37],≤ 3.94
same,pIC50,[18]; [37],6.17
ALKKLIIDR,pIC50,[6]; [35],≤ 3.78
same,pIC50,[8]; [35],≤ 2.44
same,pIC50,[18]; [35],≤ 4.08
same,pKd,[20],≤ 4.25
same,pKd,[21],5.72
same,pKd,[22],5.22
same,pKd,[23],8.22
RPKILSMINY,pKd,[1]; [38],5.53
same,pKd,[2]; [38],5.95
same,pKd,[3]; [38],5.50
same,pKd,[4]; [38],5.05
same,pKd,[5]; [38],5.24
LIAATAITH,pKd,[17]; source organism: Rickettsia felis URRWXCal2,6.58
FTSFFYRY,pKd,[24]; source organism: Influenza A virus (A/Fort Monmouth/1/1947-mouse adapted(H1N1)),5.89
TSADQQSLY,pKd,[24]; source organism: Influenza A virus (A/swine/Quebec/1192/1986(H1)),7.68
GPQSNQRSA,pKd,[1]; [39],5.23
same,pKd,[2]; [39],≤ 4.11
same,pKd,[3]; [39],6.44
same,pKd,[4]; [39],5.09
same,pKd,[5]; [39],5.01
GPMMCPFLF,pKd,[1]; [40],6.12
same,pKd,[2]; [40],6.76
same,pKd,[3]; [40],6.84
same,pKd,[4]; [40],4.87
same,pKd,[5]; [40],6.12
VPNITISSNA,pKd,[1]; [38],7.78
same,pKd,[2]; [38],≤ 4.16
same,pKd,[3]; [38],5.38
same,pKd,[4]; [38],≤ 4.16
same,pKd,[5]; [38],≤ 4.16
ITHPKYRKH,pKd,[17]; source organism: Vibrio vulnificus YJ016,≤ 4.70
GKVFAPKQK,pIC50,[19]; [41],≤ 3.92
same,pIC50,[8]; [41],4.40
same,pIC50,[18]; [41],≤ 3.81
MMYTVSLGK,pKd,[25]; [42],≤ 5.30
same,pKd,[26]; [42],≤ 5.30
same,pKd,[17]; [42],8.64
same,pKd,[27]; [42],≤ 5.30
RYQAQQVEW,pKd,[28]; source organism: Vibrio cholerae,8.34
same,pKd,[29],8.80
YKACHNSEL,pKd,[14]; source organism: Pisum sativum,≤ 4.70
MVASQLARY,pKd,[24]; [43],5.91
same,pKd,[17]; [43],6.04
same,pKd,[12]; [43],9.05
LPFHRWHTMV,pKd,[1]; [39],7.55
same,pKd,[2]; [39],4.73
same,pKd,[3]; [39],6.34
same,pKd,[4]; [39],5.94
same,pKd,[5]; [39],5.12
QPYPQSQPQY,pKd,[1]; [44],≤ 4.16
same,pKd,[2]; [44],≤ 4.67
same,pKd,[3]; [44],≤ 4.16
same,pKd,[4]; [44],≤ 4.16
same,pKd,[5]; [44],6.49
QLSNTTGRL,pIC50,[6]; [34],5.33
same,pIC50,[7]; [34],4.66
same,pIC50,[8]; [34],4.52
GFLNEDHWF,pKd,[28]; source organism: dengue virus type 2,7.61
TIAGVAGLI,pIC50,[6]; [37],5.22
same,pIC50,[7]; [37],≤ 3.78
same,pIC50,[8]; [37],5.59
LPIFSDAAL,pKd,[1]; [33],6.00
same,pKd,[2]; [33],7.19
same,pKd,[3]; [33],7.66
same,pKd,[4]; [33],≤ 4.19
same,pKd,[5]; [33],7.88
VDYGLVSKF,pIC50,[7]; [38],≤ 3.56
same,pIC50,[8]; [38],5.45
LEDGIYGIF,pKd,[30],6.93
same,pKd,[25]; [45],≤ 5.30
same,pKd,[26]; [45],≤ 5.30
same,pKd,[27]; [45],≤ 5.30
YPITGVKSL,pKd,[31],7.13
same,pKd,[32],≤ 4.70
same,pKd,[12]; [36],9.70
HWLKVWFEW,pKd,[28]; source organism: Vibrio vulnificus CMCP6,6.92
VPMEKLKAL,pKd,[1]; [39],4.93
same,pKd,[2]; [39],≤ 4.40
same,pKd,[3]; [39],7.87
same,pKd,[4]; [39],5.66
same,pKd,[5]; [39],5.18
TTITGDSAY,pKd,[24]; source organism: Salmonella enterica subsp. enterica serovar Typhi,5.40
